The record followed here is patent US20190055314A1 (ADAGENE, published 2019).

The target of assay [1] is T1, human CD137-His6 (Sino Biological #10041-H08H) (human, UniProt Q07011 24-186).
T1 construct: Bought; also called human CD137 protein; not shown: His6 tag
Put plainly: SPR Biacore, IgG. (In general: Surface plasmon resonance follows binding to a sensor surface in real time, without labels.)

Assay [2] addresses T2, mouse CD137 fused with human FC fragment (mouse, UniProt P20334 24-178, limits assumed).
T2 construct: also called mouse CD137-Fc; not shown: human Fc fragment
T2 sequence: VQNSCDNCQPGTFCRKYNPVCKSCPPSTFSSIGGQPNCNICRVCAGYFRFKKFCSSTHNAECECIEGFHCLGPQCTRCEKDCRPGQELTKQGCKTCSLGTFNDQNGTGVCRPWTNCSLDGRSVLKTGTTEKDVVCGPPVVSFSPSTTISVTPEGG
As to the kind of experiment: ELISA, coated CD137-Fc. Background: An ELISA detects its analyte on a solid surface through an enzyme-linked reagent.

In assay [3] the target is T3, mouse CD137 protein (Biacore) (mouse, UniProt P20334 24-178, limits assumed).
T3 construct: Construct used as SPR analyte not described
T3 sequence: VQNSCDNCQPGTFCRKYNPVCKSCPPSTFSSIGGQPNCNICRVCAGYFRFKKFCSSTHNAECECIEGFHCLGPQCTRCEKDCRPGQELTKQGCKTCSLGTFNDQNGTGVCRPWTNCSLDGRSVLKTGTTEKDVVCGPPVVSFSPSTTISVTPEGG
As to the kind of experiment: SPR Biacore.

The target in assay [4] is T4, rat CD137 on the cell surface (rat, UniProt Q4W8J3 24-258).
T4 sequence: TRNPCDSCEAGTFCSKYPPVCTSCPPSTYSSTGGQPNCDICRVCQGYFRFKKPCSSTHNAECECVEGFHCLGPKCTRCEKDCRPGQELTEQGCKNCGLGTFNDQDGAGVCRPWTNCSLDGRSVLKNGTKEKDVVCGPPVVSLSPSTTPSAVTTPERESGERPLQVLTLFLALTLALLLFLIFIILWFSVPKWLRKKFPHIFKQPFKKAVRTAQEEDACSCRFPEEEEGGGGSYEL
As to the kind of experiment: flow cytometry, HEK293F cells expressing CD137.

For assay [5], the target named is T5, full-length mouse CD137 on the cell surface (mouse, UniProt P20334 24-178).
T5 sequence: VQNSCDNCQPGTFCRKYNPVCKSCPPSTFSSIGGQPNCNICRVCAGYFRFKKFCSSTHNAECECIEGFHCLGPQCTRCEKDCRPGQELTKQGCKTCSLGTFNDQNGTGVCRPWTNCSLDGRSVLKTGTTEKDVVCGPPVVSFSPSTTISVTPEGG
Put plainly: flow cytometry, yeast display [Cont.].

Another assay deals with T6, Hu_CRD3 (human, limits assumed).
T6 construct: also called human CD137 CRD3
T6 chain: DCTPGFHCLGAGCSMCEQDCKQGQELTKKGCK
Put plainly: flow cytometry, yeast display [Cont.]. (In general: A flow cytometer gives signals particle by particle.)

Assay [6] addresses T5, full-length mouse CD137 on the cell …. As to the kind of experiment: flow cytometry, HEK293F cells expressing CD137 or mutant.

B1: AG10082 (antibody, human IgG4 S228P, kappa, V domains shown)
VH: EVQLVESGGGLVQPGGSLRLSCAASGYTFSNYWIHWVRQAPGKGLEWVSYISGDGDTTYYADSVKGRFTISRDNSKNTLYLQLNSLRAEDTAVYYCAREGSTTVAGDWFAYWGQGTLVTVSS
VL: DIQLTQSPSSLSASVGDRVTITCRASQGIGSFLGWYQQKPGKAPKLLIYDASSLESGVPSRFSGSGSGTDFTLTISSLQPEDFATYYCQQYYSLVTFGQGTKVEIKR
notes: also called IgG of Fab 5300
For the molecule B1, in assay [1], binding was characterised by a dissociation constant (Kd) of 13 nM; the off-rate constant (koff) – broadly, the first-order rate constant of dissociation – was 0.0072 s⁻¹; the on-rate (kon) (in general, the rate constant with which the complex forms) was determined as 560000 M⁻¹ s⁻¹.

B2: AG10083 (antibody, human IgG4 S228P, kappa, V domains shown)
VH: EVQLVESGGGLVQPGGSLRLSCAASGFSLSTSGVGVGWIRQAPGKGLEWIGEIYHSGSTYYSPSLKSRVTISRDNSKNTLYLQLNSLKAEDTAVYYCAREGSDVVTGDWFAYWGQGTLVTVSS
VL: DIQLTQSPSSLSASVGDRVTITCRASQGISSVLAWYQQKPGKAPKLLIYDASSLESGVPSRFSGSGSGTDFTLTISSLQPEDFATYYCQQGYSLWTFGQGTKVEIKR
notes: also called IgG of Fab 5323
In the case of B2, in assay [1], the dissociation constant Kd (in general, the free concentration of one partner at which half of the binding sites on the other are occupied at equilibrium, for simple one-to-one binding) stood at 12 nM; the koff turned out to be 0.0069 s⁻¹; the kon stood at 570000 M⁻¹ s⁻¹.

B3: AG10085 (antibody, human IgG4 S228P, kappa, V domains shown)
VH: EVQLVESGGGLVQPGGSLRLSCAASGFSLSTSGVGVGWIRQAPGKGLEWVSGISGAGDSTYYADSVKGRFTISRDNSKNTLYLQLNSLRAEDTAVYYCAREGSDTVLGDWFAYWGQGTLVTVSS
VL: DIQLTQSPSSLSASVGDRVTITCRASQDIRSYLAWYQQKPGKAPKLLIYDASNRATGIPSRFSGSGSGTDFTLTISSLQPEDFATYYCQQGYSIWTFGQGTKVEIKR
notes: also called IgG of Fab 5367
Turning to B3, in assay [1], the Kd was 54 nM, the koff was 0.0079 s⁻¹ and the association rate constant (kon) was found to be 150000 M⁻¹ s⁻¹.

B4: AG10124 (antibody, human IgG4 S228P, kappa, V domains shown)
VH: EVQLVESGGGLVQPGGSLRLSCAASGFSLSTGGVGVAWIRQAPGKGLEWVSSISGYGSTTYYADSVKGRFTISRDNSKNTLYLQLNSLRAEDTAVYYCAREGSDAVLGDWFGYWGQGTLVTVSS
VL: DIQLTQSPSSLSASVGDRVTITCQASQDITTYLAWYQQKPGKAPKLLIYDASNRATGIPSRFSGSGSGTDFTLTISSLQPEDFATYYCQQGYYLWTFGQGTKVEIKR
notes: also called IgG of Fab 5302
In assay [1], B4 showed an equilibrium dissociation constant (Kd) of 6 nM, a koff of 0.003 s⁻¹ and a kon of 500000 M⁻¹ s⁻¹.

B5: AG10129 (antibody, human IgG4 S228P, kappa, V domains shown)
VH: EVQLVESGGGLVQPGGSLRLSCAASGFTFSSYWIHWVRQAPGKGLEWVSVISGDGDTTYYADSVKGRFTISRDNSKNTLYLQLNSLRAEDTAVYYCARSRGLVLDAFDYWGQGTLVTVSS
VL: DIQLTQSPSSLSASVGDRVTITCRASQSVSGRFLAWYQQKPGKAPKLLIYDASSLESGVPSRFSGSGSGTDFTLTISSLQPEDFATYYCQQYDYWPPYTFGQGTKVEIKR
notes: also called IgG of Fab 5353
On to B5, for which, in assay [1], binding was characterised by a dissociation constant (Kd) of 19 nM, the koff came out at 0.006 s⁻¹ and the kon came to 310000 M⁻¹ s⁻¹.

B6: AC1097 (antibody, V domains shown)
VH: EVQLVQSGAEVKKPGESLRISCKGSGYSFSTYWISWVRQMPGKGLEWMGKIYPGDSYTNYSPSFQGQVTISADKSISTAYLQWSSLKASDTAMYYCARGYGIFDYWGQGTLVTVSS
VL: SYELTQPPSVSVSPGQTASITCSGDNIGDQYAHWYQQKPGQSPVLVIYQDKNRPSGIPERFSGSNSGNTATLTISGTQAMDEADYYCATYTGFGSLAVFGGGTKLTVL
Take B6: the binding result in assay [2] is listed as “no binding”; in assay [3] it was “no binding”; in assay [4], “no binding (tested: 100 nM (text paragraph 220))”. Moreover, the “% in upper right quadrant” value in assay [5] came out at 0.59%; with Hu_CRD3, 0.22%; in assay [6], 0.005%. The Mean in assay [5] amounted to 16200; with Hu_CRD3, 12700.
